Test results taken from patent US20180251489A1.

Target: mucosa-associated lymphoid tissue lymphoma translocation protein 1 (UniProt Q9UDY8)
Experiment: enzyme inhibition assay, 100 nM MALT1

Chain of mucosa-associated lymphoid tissue lymphoma translocation protein 1 (Q9UDY8 340-789): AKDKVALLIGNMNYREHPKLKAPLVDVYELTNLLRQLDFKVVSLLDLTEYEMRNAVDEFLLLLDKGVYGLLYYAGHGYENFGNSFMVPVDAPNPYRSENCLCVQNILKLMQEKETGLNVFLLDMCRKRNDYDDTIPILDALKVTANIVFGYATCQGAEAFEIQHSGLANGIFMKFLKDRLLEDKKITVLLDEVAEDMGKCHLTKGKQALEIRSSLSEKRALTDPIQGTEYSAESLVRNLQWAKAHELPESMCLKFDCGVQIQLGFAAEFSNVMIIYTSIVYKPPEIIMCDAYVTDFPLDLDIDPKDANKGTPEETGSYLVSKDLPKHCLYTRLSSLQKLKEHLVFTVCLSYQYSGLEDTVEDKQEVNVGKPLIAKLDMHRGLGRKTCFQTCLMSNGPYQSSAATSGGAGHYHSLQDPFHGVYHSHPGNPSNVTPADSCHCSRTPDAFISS

Ki [nM] | Substance
27 | 2-Chlorobenzyl ((S)-1-((S)-2-(((S)-1-fluoro-6-guanidino-2-oxohexan-3-yl)carbamoyl)pyrrolidin-1-yl)-3-methyl-1-oxobutan-2-yl)carbamate (peptide)
22 | 3-Chlorobenzyl ((S)-1-((S)-2-(((S)-1-fluoro-6-guanidino-2-oxohexan-3-yl)carbamoyl)pyrrolidin-1-yl)-3-methyl-1-oxobutan-2-yl)carbamate (peptide)
38 | 4-Bromo-N-((S)-1-(((S)-1-(((S)-1-fluoro-6-guanidino-2-oxohexan-3-yl)amino)-1-oxopropan-2-yl)amino)-3-methyl-1-oxobutan-2-yl)benzamide (peptide)
46 | 4-Bromo-N-((S)-1-cyclohexyl-2-(((S)-1-(((S)-1-fluoro-6-guanidino-2-oxohexan-3-yl)amino)-3-hydroxy-1-oxopropan-2-yl)amino)-2-oxoethyl)benzamide (peptide)
32 | 4-Chlorobenzyl ((S)-1-((S)-2-(((S)-1-fluoro-6-guanidino-2-oxohexan-3-yl)carbamoyl)pyrrolidin-l-yl)-3-methyl-1-oxobutan-2-yl)carbamate (peptide)
64 | 4-bromo-N-((S)-1-(((S)-1-(((S)-1-fluoro-6-guanidino-2-oxohexan-3-yl)amino)-3-hydroxy-1-oxopropan-2-yl)amino)-3-methyl-1-oxobutan-2-yl)benzamide (peptide)
28 | (2S,4R)-1-((4-Bromobenzoyl)-L-valyl)-4-cyano-N-((S)-1-fluoro-6-guanidino-2-oxohexan-3-yl)pyrrolidine-2-carboxamide (peptide)
50 | (2S,4R)-1-((4-Bromobenzoyl)-L-valyl)-N-((S)-1-fluoro-6-guanidino-2-oxohexan-3-yl)-4-hydroxypyrrolidine-2-carboxamide (peptide)
34 | (2S,4R)-1-((S)-2-(4-Bromobenzamido)-2-cyclohexylacetyl)-N-((S)-1-fluoro-6-guanidino-2-oxohexan-3-yl)-4-hydroxypyrrolidine-2-carboxamide (peptide)
102 | (S)-1-((1-naphthoyl)-L-valyl)-N-((S)-1-fluoro-6-guanidino-2-oxohexan-3-yl)pyrrolidine-2-carboxamide (peptide)
46 | (S)-1-((2-(3-Bromophenyl)acetyl)-L-valyl)-N-((S)-1-fluoro-6-guanidino-2-oxohexan-3-yl)pyrrolidine-2-carboxamide (peptide)
105 | (S)-1-((2-Bromobenzoyl)-L-valyl)-N-((S)-1-fluoro-6-guanidino-2-oxohexan-3-yl)pyrrolidine-2-carboxamide (peptide)
47 | (S)-1-((2-naphthoyl)-L-valyl)-N-((S)-1-fluoro-6-guanidino-2-oxohexan-3-yl)pyrrolidine-2-carboxamide (peptide)
41 | (S)-1-((3-Bromobenzoyl)-L-valyl)-N-((S)-1-fluoro-6-guanidino-2-oxohexan-3-yl)pyrrolidine-2-carboxamide (peptide)
54 | (S)-1-((3-acetamidobenzoyl)-L-valyl)-N-((S)-1-fluoro-6-guanidino-2-oxohexan-3-yl)pyrrolidine-2-carboxamide (peptide)
39 | (S)-1-((3-cyanobenzoyl)-L-valyl)-N-((S)-1-fluoro-6-guanidino-2-oxohexan-3-yl)pyrrolidine-2-carboxamide (peptide)
45 | (S)-1-((4-(tert-Butyl)benzoyl)-L-valyl)-N-((S)-1-fluoro-6-guanidino-2-oxohexan-3-yl)pyrrolidine-2-carboxamide (peptide)
71 | (S)-1-((4-Bromo-2-fluorobenzoyl)-L-valyl)-N-((S)-1-fluoro-6-guanidino-2-oxohexan-3-yl)pyrrolidine-2-carboxamide (peptide)
40 | (S)-1-((4-Bromo-2-methylbenzoyl)-L-valyl)-N-((S)-1-fluoro-6-guanidino-2-oxohexan-3-yl)pyrrolidine-2-carboxamide (peptide)
182 | (S)-1-((4-Bromobenzoyl)-L-leucyl)-N-((S)-1-fluoro-6-guanidino-2-oxohexan-3-yl)pyrrolidine-2-carboxamide (peptide)
118 | (S)-1-((4-Bromobenzoyl)-L-valyl)-N-((S)-1-fluoro-6-guanidino-2-oxohexan-3-yl)azetidine-2-carboxamide (peptide)
10 | (S)-1-((4-Bromobenzoyl)-L-valyl)-N-((S)-1-fluoro-6-guanidino-2-oxohexan-3-yl)pyrrolidine-2-carboxamide (peptide)
60 | (S)-1-((4-Cyanobenzoyl)-L-valyl)-N-((S)-1-fluoro-6-guanidino-2-oxohexan-3-yl)pyrrolidine-2-carboxamide (peptide)
13 | (S)-1-((4-bromo-3-cyanobenzoyl)-L-valyl)-N-((S)-1-fluoro-6-guanidino-2-oxohexan-3-yl)pyrrolidine-2-carboxamide (peptide)
78 | (S)-1-((4-bromo-3-fluorobenzoyl)-L-valyl)-N-((S)-1-fluoro-6-guanidino-2-oxohexan-3-yl)pyrrolidine-2-carboxamide (peptide)

Ki [nM] | Substance
79 | (S)-1-((4-bromobenzoyl)-L-valyl)-N-((S)-1-fluoro-6-guanidino-2-oxohexan-3-yl)piperidine-2-carboxamide (peptide)
24 | (S)-1-((4-chloro-3-cyanobenzoyl)-L-valyl)-N-((S)-1-fluoro-6-guanidino-2-oxohexan-3-yl)pyrrolidine-2-carboxamide (peptide)
67 | (S)-1-((4-chlorobenzoyl)-L-valyl)-N-((S)-1-fluoro-6-guanidino-2-oxohexan-3-yl)pyrrolidine-2-carboxamide (peptide)
24 | (S)-1-(((2-Chlorophenyl)carbamoyl)-L-valyl)-N-((S)-1-fluoro-6-guanidino-2-oxohexan-3-yl)pyrrolidine-2-carboxamide (peptide)
557 | (S)-1-(((3-Chlorophenyl)carbamoyl)-L-valyl)-N-((R)-1-fluoro-6-guanidino-2-oxohexan-3-yl)pyrrolidine-2-carboxamide (peptide)
27 | (S)-1-(((3-Chlorophenyl)carbamoyl)-L-valyl)-N-((S)-1-fluoro-6-guanidino-2-oxohexan-3-yl)pyrrolidine-2-carboxamide (peptide)
66 | (S)-1-(((4-Bromophenyl)sulfonyl)-L-valyl)-N-((S)-1-fluoro-6-guanidino-2-oxohexan-3-yl)pyrrolidine-2-carboxamide (peptide)
62 | (S)-1-(((4-Chlorophenyl)carbamoyl)-L-valyl)-N-((S)-1-fluoro-6-guanidino-2-oxohexan-3-yl)pyrrolidine-2-carboxamide (peptide)
56 | (S)-1-((Cyclohexanecarbonyl)-L-valyl)-N-((S)-1-fluoro-6-guanidino-2-oxohexan-3-yl)pyrrolidine-2-carboxamide (peptide)
448 | (S)-1-((S)-2-(4-Bromobenzamido)-3-(4-(trifluoromethyl)phenyl)propanoyl)-N-((S)-1-fluoro-6-guanidino-2-oxohexan-3-yl)pyrrolidine-2-carboxamide (peptide)
122 | (S)-1-((S)-2-(4-Bromobenzamido)-3-cyclohexylpropanoyl)-N-((S)-1-fluoro-6-guanidino-2-oxohexan-3-yl)pyrrolidine-2-carboxamide (peptide)
45 | (S)-1-((S)-2-(4-bromobenzamido)-2-cyclohexylacetyl)-N-((S)-1-fluoro-6-guanidino-2-oxohexan-3-yl)pyrrolidine-2-carboxamide (peptide)
30 | (S)-1-(([1,1′-biphenyl]-4-carbonyl)-L-valyl)-N-((S)-1-fluoro-6-guanidino-2-oxohexan-3-yl)pyrrolidine-2-carboxamide (peptide)
40 | (S)-1-(Benzoyl-L-valyl)-N-((S)-1-fluoro-6-guanidino-2-oxohexan-3-yl)pyrrolidine-2-carboxamide (peptide)
36 | (S)-1-(cinnamoyl-L-valyl)-N-((S)-1-fluoro-6-guanidino-2-oxohexan-3-yl)pyrrolidine-2-carboxamide (peptide)
20 | (S)-3-((4-Bromobenzoyl)-L-valyl)-N-((S)-1-fluoro-6-guanidino-2-oxohexan-3-yl)oxazolidine-4-carboxamide (peptide)
70 | (S)-4-((4-Bromobenzoyl)-L-valyl)-N-((S)-1-fluoro-6-guanidino-2-oxohexan-3-yl)morpholine-3-carboxamide (peptide)
346 | (S)-N-((R)-1-Fluoro-6-guanidino-2-oxohexan-3-yl)-1-((4-fluorobenzoyl)-L-valyl)pyrrolidine-2-carboxamide (peptide)
109 | (S)-N-((S)-1-Fluoro-6-guanidino-2-oxohexan-3-yl)-1-((2-methoxybenzoyl)-L-valyl)pyrrolidine-2-carboxamide (peptide)
42 | (S)-N-((S)-1-Fluoro-6-guanidino-2-oxohexan-3-yl)-1-((2-phenylacetyl)-L-valyl)pyrrolidine-2-carboxamide (peptide)
75 | (S)-N-((S)-1-Fluoro-6-guanidino-2-oxohexan-3-yl)-1-((3-methoxybenzoyl)-L-valyl)pyrrolidine-2-carboxamide (peptide)
43 | (S)-N-((S)-1-Fluoro-6-guanidino-2-oxohexan-3-yl)-1-((3-phenylpropanoyl)-L-valyl)pyrrolidine-2-carboxamide (peptide)
13 | (S)-N-((S)-1-Fluoro-6-guanidino-2-oxohexan-3-yl)-1-((4-fluorobenzoyl)-L-valyl)pyrrolidine-2-carboxamide (peptide)
22 | (S)-N-((S)-1-Fluoro-6-guanidino-2-oxohexan-3-yl)-1-((4-isopropylbenzoyl)-L-valyl)pyrrolidine-2-carboxamide (peptide)
50 | (S)-N-((S)-1-Fluoro-6-guanidino-2-oxohexan-3-yl)-1-((4-methoxybenzoyl)-L-valyl)pyrrolidine-2-carboxamide (peptide)
